From patent US20240409647A1 (SINOMAB BIOSCIENCE, published 2024)

Key:
[1] = biological target: T1, human IL-17 receptor subunit A (human, UniProt Q96F46 33-320); assay: ELISA, coated receptor; SM17 at 0.4 µg/mL; well 2
T1 construct: also called IL17RA; hIL17RA

[2] = biological target: T2, human IL-17 receptor subunit C (human, UniProt Q8NAC3-2 21-467, limits assumed); assay: ELISA, coated receptor; SM17 at 0.4 µg/mL; well 2
T2 construct: also called IL17RC; hIL17RC
T2 sequence (looked up): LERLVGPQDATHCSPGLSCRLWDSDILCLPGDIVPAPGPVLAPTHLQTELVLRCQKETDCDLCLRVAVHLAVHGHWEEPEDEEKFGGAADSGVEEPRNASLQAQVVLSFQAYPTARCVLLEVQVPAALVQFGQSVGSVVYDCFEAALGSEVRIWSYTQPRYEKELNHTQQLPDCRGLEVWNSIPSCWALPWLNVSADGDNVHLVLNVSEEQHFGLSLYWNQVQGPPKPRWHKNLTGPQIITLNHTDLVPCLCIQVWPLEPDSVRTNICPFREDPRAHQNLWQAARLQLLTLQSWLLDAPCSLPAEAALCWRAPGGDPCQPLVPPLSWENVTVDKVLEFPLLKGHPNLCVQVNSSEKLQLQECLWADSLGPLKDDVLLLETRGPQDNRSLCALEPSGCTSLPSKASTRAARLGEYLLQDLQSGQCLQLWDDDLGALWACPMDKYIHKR

[3] = biological target: T3, human IL-17 receptor subunit D (human, UniProt Q8NFM7 28-299, limits assumed); assay: ELISA, coated receptor; SM17 at 0.4 µg/mL; well 2
T3 construct: also called IL17RD; hIL 17RD
T3 sequence (looked up): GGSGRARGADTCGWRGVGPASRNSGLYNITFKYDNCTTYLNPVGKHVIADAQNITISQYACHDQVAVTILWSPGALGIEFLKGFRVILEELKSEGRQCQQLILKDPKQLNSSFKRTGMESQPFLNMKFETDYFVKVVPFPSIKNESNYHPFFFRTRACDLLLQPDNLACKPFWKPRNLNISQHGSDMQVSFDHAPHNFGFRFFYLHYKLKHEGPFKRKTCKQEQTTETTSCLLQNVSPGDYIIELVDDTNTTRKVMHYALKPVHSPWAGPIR

[4] = biological target: T4, human IL-17 receptor subunit E (human, UniProt Q8NFR9 24-454, limits assumed); assay: ELISA, coated receptor; SM17 at 0.4 µg/mL; well 2
T4 construct: also called hIL17RE
T4 sequence (looked up): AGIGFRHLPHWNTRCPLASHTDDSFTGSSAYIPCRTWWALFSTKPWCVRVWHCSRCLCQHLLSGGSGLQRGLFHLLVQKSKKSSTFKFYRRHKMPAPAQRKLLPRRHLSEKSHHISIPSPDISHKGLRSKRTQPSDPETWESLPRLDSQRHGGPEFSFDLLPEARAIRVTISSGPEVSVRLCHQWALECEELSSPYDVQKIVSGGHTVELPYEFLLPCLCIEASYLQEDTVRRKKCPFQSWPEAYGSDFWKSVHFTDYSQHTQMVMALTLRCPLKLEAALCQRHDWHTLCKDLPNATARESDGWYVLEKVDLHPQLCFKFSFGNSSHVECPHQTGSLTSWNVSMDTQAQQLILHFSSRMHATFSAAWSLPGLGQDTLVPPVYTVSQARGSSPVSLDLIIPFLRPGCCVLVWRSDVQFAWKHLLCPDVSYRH

[5] = biological target: T5, human IL-17RB protein (recombinant, R&D systems) (human); assay: ELISA, coated receptor; SM17 at 0.016 µg/mL; well 1
T5 construct: Bought protein; also called hIL17RB
T5 sequence (Q9NRM6 whole entry, looked up): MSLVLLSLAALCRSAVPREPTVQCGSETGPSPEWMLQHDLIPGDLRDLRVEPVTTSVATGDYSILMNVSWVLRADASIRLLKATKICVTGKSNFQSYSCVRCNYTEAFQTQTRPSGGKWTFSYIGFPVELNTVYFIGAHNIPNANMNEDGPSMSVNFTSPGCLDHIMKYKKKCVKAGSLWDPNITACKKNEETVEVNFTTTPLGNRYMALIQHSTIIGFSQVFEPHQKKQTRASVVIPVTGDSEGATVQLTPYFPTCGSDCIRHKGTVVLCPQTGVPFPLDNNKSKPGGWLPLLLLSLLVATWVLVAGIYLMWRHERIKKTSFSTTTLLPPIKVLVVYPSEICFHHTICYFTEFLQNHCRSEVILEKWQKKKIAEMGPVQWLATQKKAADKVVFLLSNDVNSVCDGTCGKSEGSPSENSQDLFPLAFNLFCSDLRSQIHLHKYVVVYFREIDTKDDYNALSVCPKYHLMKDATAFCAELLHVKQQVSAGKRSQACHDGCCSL

[6] = biological target: T1, human IL-17 receptor subunit A; assay: as above
[7] = biological target: T2, human IL-17 receptor subunit C; assay: as above
[8] = biological target: T3, human IL-17 receptor subunit D; assay: as above
[9] = biological target: T4, human IL-17 receptor subunit E; assay: as above
[10] = biological target: T5, human IL-17RB protein (recombinant, R&D …); assay: BLI (Octet RED96), SM17 captured via anti-human Fab CH1, IL17RB in solution; trial 2
From the text: (§1) Irrelevant antibody (SM03, anti-human CD22 chimeric IgG1 antibody, SinoMab BioScience Limited) was used as the control reference.

[11] = biological target: T6, cynomolgus monkey IL-17RB protein (recombinant, R&D systems) (cynomolgus monkey, UniProt A0A2K5TUK1 18-289); assay: as above
T6 construct: also called cynomolgus IL17RB; Cyno-IL17RB
T6 sequence: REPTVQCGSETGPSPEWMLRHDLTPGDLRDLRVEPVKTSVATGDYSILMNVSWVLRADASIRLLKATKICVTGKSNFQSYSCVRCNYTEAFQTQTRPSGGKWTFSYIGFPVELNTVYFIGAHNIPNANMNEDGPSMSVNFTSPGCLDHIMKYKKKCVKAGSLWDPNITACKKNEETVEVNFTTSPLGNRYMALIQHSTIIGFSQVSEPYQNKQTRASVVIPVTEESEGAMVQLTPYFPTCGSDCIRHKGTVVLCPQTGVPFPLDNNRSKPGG
From the text: as §1

OD 450 nm Absorption [1]: 0.22 OD450
OD 450 nm Absorption [2]: 0.18 OD450
OD 450 nm Absorption [3]: 0.08 OD450
OD 450 nm Absorption [4]: 0.05 OD450
OD 450 nm Absorption [5]: 0.35 OD450
OD 450 nm Absorption [6]: 0.01 OD450
OD 450 nm Absorption [7]: 0.09 OD450
OD 450 nm Absorption [8]: 0.07 OD450
OD 450 nm Absorption [9]: 0 OD450
Kd [10]: 0.546 nM
koff [10]: 9.98e-05 s⁻¹
kon [10]: 183000 M⁻¹ s⁻¹
Kd [11]: 5.11 nM
koff [11]: 0.000215 s⁻¹
kon [11]: 42100 M⁻¹ s⁻¹
B1: SM17 (antibody, human IgG4 S228P, kappa, V domains shown)
VH: QVQLVQSGAEVKKPGASVKVSCKASGYTFISYWMNWVRQAPGQGLEWMGRIDPYDSEIQYNQKFKDRVTMTRDTSISTAYMELSRLRSDDTAVYYCARSGGFDWFAYWGQGTLVTVSS
VL: DIQMTQSPSSLSASVGDRVTITCRASENINSNLAWYQQKPGKAPKLLLYDVTNLADGVPSRFSGSGSGTDYTLTISSLQPEDFATYYCQHFWGPPYTFGGGTKVEIKR
notes: other paragraphs and claim 15 call the same entries VH and VL; also called humanized anti-IL17RB monoclonal antibody
